Assay results published in article PMC6555819, “Comprehensive study of nuclear receptor DNA binding provides a revised framework for understanding receptor specificity”.
Changes are numbered by the printed parent chain.

B1: NRC3_random_hg19_483_o1 (dsDNA)
DNA 1: GCGAATGGAATAGAGTGGAATGCAGTGGAATGGAAAGCGATTGACAGCGTAGAATGAAGG
DNA 2: CCTTCATTCTACGCTGTCAATCGCTTTCCATTCCACTGCATTCCACTCTATTCCATTCGC
B2: NRC3_random_hg19_330_o1 (dsDNA)
DNA 1: GCAGACTTTGCATCCTGCTGAGAACTGCTCTGAGAGGCGATTGACAGCGTAGAATGAAGG
DNA 2: CCTTCATTCTACGCTGTCAATCGCCTCTCAGAGCAGTTCTCAGCAGGATGCAAAGTCTGC
B3: NRC3_random_hg19_473_o1 (dsDNA)
DNA 1: GCGCTACTCGGGAGGCTGAGGCAGGAGAATGGTGTGGCGATTGACAGCGTAGAATGAAGG
DNA 2: CCTTCATTCTACGCTGTCAATCGCCACACCATTCTCCTGCCTCAGCCTCCCGAGTAGCGC
B4: NRC3_random_hg19_188_o1 (dsDNA)
DNA 1: GCGCTAGGATTACAGGCACAAGCCACCGTGCCCAGCGCGATTGACAGCGTAGAATGAAGG
DNA 2: CCTTCATTCTACGCTGTCAATCGCGCTGGGCACGGTGGCTTGTGCCTGTAATCCTAGCGC
B5: NRC3_random_hg19_326_o1 (dsDNA)
DNA 1: GCATCAGGTCTGCACCTGCAGATGGCGAGGGTTGGCGCGATTGACAGCGTAGAATGAAGG
DNA 2: CCTTCATTCTACGCTGTCAATCGCGCCAACCCTCGCCATCTGCAGGTGCAGACCTGATGC
B6: NRC3_wobSeed98_DR4_G7A_o1 (dsDNA)
DNA 1: GCACTAATTGGTCAGCTGAGGTCACACACAATTCGGGCGATTGACAGCGTAGAATGAAGG
DNA 2: CCTTCATTCTACGCTGTCAATCGCCCGAATTGTGTGTGACCTCAGCTGACCAATTAGTGC
B7: NRC3_wobSeed61_DR2_G15C_o1 (dsDNA)
DNA 1: GCCGTCCAAGGTCACCAGGTCAGTGAAAGCGACGTGGCGATTGACAGCGTAGAATGAAGG
DNA 2: CCTTCATTCTACGCTGTCAATCGCCACGTCGCTTTCACTGACCTGGTGACCTTGGACGGC
B8: NRC3_wobSeed121_DR5_A6C_o1 (dsDNA)
DNA 1: GCCAACCTAGGTCACCGGAAGGTCAAAGTCCGCATGGCGATTGACAGCGTAGAATGAAGG
DNA 2: CCTTCATTCTACGCTGTCAATCGCCATGCGGACTTTGACCTTCCGGTGACCTAGGTTGGC
B9: NRC3_wobSeed133_DR5_A8G_o1 (dsDNA)
DNA 1: GCCGTCCGAGGTCAATGCTAGGTCAGTGAAAGCATTGCGATTGACAGCGTAGAATGAAGG
DNA 2: CCTTCATTCTACGCTGTCAATCGCAATGCTTTCACTGACCTAGCATTGACCTCGGACGGC
B10: NRC3_wobSeed46_DR1_A8G_o1 (dsDNA)
DNA 1: GCTTACCGAGGTGAAAGGTCGTTGATGCACGCCTTGGCGATTGACAGCGTAGAATGAAGG
DNA 2: CCTTCATTCTACGCTGTCAATCGCCAAGGCGTGCATCAACGACCTTTCACCTCGGTAAGC
B11: NRC3_wobSeed109_DR4_A16G_o1 (dsDNA)
DNA 1: GCCGTCCAAGGTCATGGGAGGTCAGTGAAGACAGATGCGATTGACAGCGTAGAATGAAGG
DNA 2: CCTTCATTCTACGCTGTCAATCGCATCTGTCTTCACTGACCTCCCATGACCTTGGACGGC
B12: NRC3_wobSeed99_DR4_A26T_o1 (dsDNA)
DNA 1: GCTCTCGGAGGACACGAAAGGTCAGTGCTCGACATCGCGATTGACAGCGTAGAATGAAGG
DNA 2: CCTTCATTCTACGCTGTCAATCGCGATGTCGAGCACTGACCTTTCGTGTCCTCCGAGAGC
B13: NRC3_wobSeed82_DR3_C16G_o1 (dsDNA)
DNA 1: GCATCGAAAGGTCGAGGAGGTGAGTATACACCGTTTGCGATTGACAGCGTAGAATGAAGG
DNA 2: CCTTCATTCTACGCTGTCAATCGCAAACGGTGTATACTCACCTCCTCGACCTTTCGATGC
B14: NRC3_wobSeed136_DR5_C23G_o1 (dsDNA)
DNA 1: GCTAGCCTAGGTCATTCAGGGGGCAGTATAGAAAGCGCGATTGACAGCGTAGAATGAAGG
DNA 2: CCTTCATTCTACGCTGTCAATCGCGCTTTCTATACTGCCCCCTGAATGACCTAGGCTAGC
B15: NRC3_wobSeed136_DR5_T8A_o1 (dsDNA)
DNA 1: B14 DNA 1 with T8A, G23C
DNA 2: B14 DNA 2 with C38G, A53T
B16: NRC3_wobSeed25_DR1_G24C_o1 (dsDNA)
DNA 1: GCCAAACTAGGTCAAAGGTCAAACTCGAGCCAACCAGCGATTGACAGCGTAGAATGAAGG
DNA 2: CCTTCATTCTACGCTGTCAATCGCTGGTTGGCTCGAGTTTGACCTTTGACCTAGTTTGGC
B17: NRC3_wobSeed51_DR2_A12T_o1 (dsDNA)
DNA 1: GCCCTCGGAGGTCAGAAGGTCAGAGCTGTCCGCTTTGCGATTGACAGCGTAGAATGAAGG
DNA 2: CCTTCATTCTACGCTGTCAATCGCAAAGCGGACAGCTCTGACCTTCTGACCTCCGAGGGC
B18: NRC3_wobSeed63_DR2_G25T_o1 (dsDNA)
DNA 1: GCCGAACTAGGTCACCAGGACAGTTAAGAGGTTGGAGCGATTGACAGCGTAGAATGAAGG
DNA 2: CCTTCATTCTACGCTGTCAATCGCTCCAACCTCTTAACTGTCCTGGTGACCTAGTTCGGC
B19: NRC3_wobSeed63_DR2_T24C_o1 (dsDNA)
DNA 1: B18 DNA 1 with T24C, T25G
DNA 2: B18 DNA 2 with A36C, A37G
B20: NRC3_wobSeed17_DR0_T6A_o1 (dsDNA)
DNA 1: GCATAAGTAGGTTAGGGTCATTCAGAAAGTAGGGAAGCGATTGACAGCGTAGAATGAAGG
DNA 2: CCTTCATTCTACGCTGTCAATCGCTTCCCTACTTTCTGAATGACCCTAACCTACTTATGC
B21: NRC3_wobSeed2_DR0_C25T_o1 (dsDNA)
DNA 1: GCCCTAGTTGGTCAAGGTCACACATGCTATAGGTACGCGATTGACAGCGTAGAATGAAGG
DNA 2: CCTTCATTCTACGCTGTCAATCGCGTACCTATAGCATGTGTGACCTTGACCAACTAGGGC
B22: NRC3_wobSeed138_DR5_G15A_o1 (dsDNA)
DNA 1: GCGATACAGGGTCAACTAGAGGCCAGAGTATGGAAAGCGATTGACAGCGTAGAATGAAGG
DNA 2: CCTTCATTCTACGCTGTCAATCGCTTTCCATACTCTGGCCTCTAGTTGACCCTGTATCGC
B23: NRC3_wobSeed138_DR5_C23G_o1 (dsDNA)
DNA 1: B22 DNA 1 with A15G, C23G
DNA 2: B22 DNA 2 with G38C, T46C
B24: NRC3_wobSeed125_DR5_T24C_o1 (dsDNA)
DNA 1: GCCCTTACGGGTCACTGACAGGTCATAGCATTTGGAGCGATTGACAGCGTAGAATGAAGG
DNA 2: CCTTCATTCTACGCTGTCAATCGCTCCAAATGCTATGACCTGTCAGTGACCCGTAAGGGC
B25: NRC3_wobSeed134_DR5_T20A_o1 (dsDNA)
DNA 1: GCGCTGCTAGGTCAACTGAAGGTCAGCTAAAGCTCGGCGATTGACAGCGTAGAATGAAGG
DNA 2: CCTTCATTCTACGCTGTCAATCGCCGAGCTTTAGCTGACCTTCAGTTGACCTAGCAGCGC
B26: NRC3_wobSeed134_DR5_C24G_o1 (dsDNA)
DNA 1: B25 DNA 1 with A20T, C24G
DNA 2: B25 DNA 2 with G37C, T41A
B27: NRC3_wobSeed134_DR5_T20G_o1 (dsDNA)
DNA 1: B25 DNA 1 with A20G
DNA 2: B25 DNA 2 with T41C
B28: NRC3_wobSeed122_DR5_T9G_o1 (dsDNA)
DNA 1: GCGCTAGTGGGTCAGTAAAAGGTCACACACCGGTCGGCGATTGACAGCGTAGAATGAAGG
DNA 2: CCTTCATTCTACGCTGTCAATCGCCGACCGGTGTGTGACCTTTTACTGACCCACTAGCGC
B29: NRC3_wobSeed50_DR2_C25A_o1 (dsDNA)
DNA 1: GCCCTAGTTGGTCAGGAGGTCACAAACCGGATATGAGCGATTGACAGCGTAGAATGAAGG
DNA 2: CCTTCATTCTACGCTGTCAATCGCTCATATCCGGTTTGTGACCTCCTGACCAACTAGGGC
B30: NRC3_wobSeed135_DR5_G4C_o1 (dsDNA)
DNA 1: GCCCAACTAGGTCATTGACAGGACAGTGAATAGTAAGCGATTGACAGCGTAGAATGAAGG
DNA 2: CCTTCATTCTACGCTGTCAATCGCTTACTATTCACTGTCCTGTCAATGACCTAGTTGGGC
B31: NRC3_wobSeed34_DR1_T4G_o1 (dsDNA)
DNA 1: GCAGCGAAAGGTCGAAGGTGAGTATACCCACCCGAAGCGATTGACAGCGTAGAATGAAGG
DNA 2: CCTTCATTCTACGCTGTCAATCGCTTCGGGTGGGTATACTCACCTTCGACCTTTCGCTGC
B32: NRC3_wobSeed49_DR2_G25C_o1 (dsDNA)
DNA 1: GCCAAACTAGGTCAAGAGGTCAAACTCCGCTTCCCGGCGATTGACAGCGTAGAATGAAGG
DNA 2: CCTTCATTCTACGCTGTCAATCGCCGGGAAGCGGAGTTTGACCTCTTGACCTAGTTTGGC

Target: PPARa:RXRa (Homo sapiens, UniProt Q07869;P19793 full;full)
Sequence (Q07869 whole entry, chain 1 of 2): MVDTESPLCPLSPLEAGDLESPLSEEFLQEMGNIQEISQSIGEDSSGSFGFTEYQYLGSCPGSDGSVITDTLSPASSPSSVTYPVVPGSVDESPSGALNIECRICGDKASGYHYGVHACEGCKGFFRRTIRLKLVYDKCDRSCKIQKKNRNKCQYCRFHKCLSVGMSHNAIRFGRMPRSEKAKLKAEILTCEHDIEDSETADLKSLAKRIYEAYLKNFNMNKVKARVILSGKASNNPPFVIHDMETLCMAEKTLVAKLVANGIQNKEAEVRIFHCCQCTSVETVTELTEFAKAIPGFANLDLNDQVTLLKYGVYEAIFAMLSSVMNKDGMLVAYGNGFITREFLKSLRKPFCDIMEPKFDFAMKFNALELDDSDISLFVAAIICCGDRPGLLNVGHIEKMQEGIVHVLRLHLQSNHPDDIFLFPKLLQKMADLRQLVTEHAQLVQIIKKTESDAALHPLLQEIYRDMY
Sequence (P19793 whole entry, chain 2 of 2): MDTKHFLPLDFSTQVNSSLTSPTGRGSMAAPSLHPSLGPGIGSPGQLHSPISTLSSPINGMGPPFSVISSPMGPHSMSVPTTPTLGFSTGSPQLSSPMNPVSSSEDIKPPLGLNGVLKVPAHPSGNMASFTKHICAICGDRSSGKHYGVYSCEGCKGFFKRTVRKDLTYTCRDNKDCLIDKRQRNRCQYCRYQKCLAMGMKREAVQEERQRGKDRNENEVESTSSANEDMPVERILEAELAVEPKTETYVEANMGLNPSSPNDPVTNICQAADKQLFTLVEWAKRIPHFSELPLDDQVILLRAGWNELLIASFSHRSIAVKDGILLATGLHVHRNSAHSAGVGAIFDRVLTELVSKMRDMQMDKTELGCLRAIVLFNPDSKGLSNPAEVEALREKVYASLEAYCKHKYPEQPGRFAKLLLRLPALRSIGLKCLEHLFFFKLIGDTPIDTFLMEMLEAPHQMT
Test: no ligand; PBM; 270 nM : 90 nM RXRa; PBS pH 7.4, 2% milk, 0.02% Triton X-100, 1 mM DTT, BSA, 0.4 mg/ml salmon testes DNA
Settings: tags: GST kept;His cleaved; copies: 1;1; label: surface-attached array probe
Procedure, shortened: (§1)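 Probes were double-stranded and carried 34-nt variable regions with direct-repeat seeds, single-nucleotide variants, half-site ablations and random human genomic background sequences, printed on custom Agilent 4×180K protein-binding microarrays. Arrays were incubated 1 h with ligand-free nuclear receptor dimers in PBS pH 7.4, 2% milk, 0.02% Triton X-100, 1 mM DTT, 0.2 mg/mL BSA and 0.4 mg/ml salmon testes DNA. Antibodies against each partner (one per run) detected binding, and scanned fluorescence was regression-normalized. Binding z-scores use the random background probes as reference.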

Going from B1 to B2, the binding signal falls from -0.61 PBM z-score against 500 random probes to -1.18 PBM z-score against 500 random probes.

Compared with B3, B4 is higher in binding signal: -1.24 PBM z-score against 500 random probes for the first, -0.72 PBM z-score against 500 random probes for the second.

For B5, the binding signal was -0.67 PBM z-score against 500 random probes.

Target: RARg:RXRa (Homo sapiens, UniProt P13631;P19793 full;full)
Sequence (P13631 whole entry, chain 1 of 2): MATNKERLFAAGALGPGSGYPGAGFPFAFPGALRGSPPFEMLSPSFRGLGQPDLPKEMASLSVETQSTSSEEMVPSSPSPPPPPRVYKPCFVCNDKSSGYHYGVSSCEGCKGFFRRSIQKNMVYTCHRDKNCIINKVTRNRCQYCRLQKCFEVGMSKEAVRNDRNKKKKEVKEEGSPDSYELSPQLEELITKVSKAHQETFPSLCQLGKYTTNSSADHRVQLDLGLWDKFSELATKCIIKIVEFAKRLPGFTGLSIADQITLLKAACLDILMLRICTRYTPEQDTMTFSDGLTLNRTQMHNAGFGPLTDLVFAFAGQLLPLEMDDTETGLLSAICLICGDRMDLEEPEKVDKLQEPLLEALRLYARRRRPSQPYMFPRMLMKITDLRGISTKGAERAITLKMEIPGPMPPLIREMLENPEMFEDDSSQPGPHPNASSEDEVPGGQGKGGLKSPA
Sequence (P19793 whole entry, chain 2 of 2): as the sequence (P19793 whole entry, chain 2 of 2) above
Test: as above
Settings: tags: His kept;His cleaved; copies: 1;1; label: surface-attached array probe
Procedure, shortened: as §1

Compared with B6, B7 is higher in binding signal: 4.44 PBM z-score against 500 random probes for the first, 7.32 PBM z-score against 500 random probes for the second.

First: B8
Second: B9
The binding signal of the first is higher: 8.94 PBM z-score against 500 random probes for the first, 8.1 PBM z-score against 500 random probes for the second.

First: B10
Second: B11
The binding signal of the first is lower: 4.52 PBM z-score against 500 random probes for the first, 7.38 PBM z-score against 500 random probes for the second.

Going from B12 to B13, the binding signal falls from 4.39 PBM z-score against 500 random probes to 4.27 PBM z-score against 500 random probes.

First: B14
Second: B15
The binding signal of the first is higher: 7.73 PBM z-score against 500 random probes for the first, 7.41 PBM z-score against 500 random probes for the second.

Compared with B16, B17 is lower in binding signal: 9.32 PBM z-score against 500 random probes for the first, 7.6 PBM z-score against 500 random probes for the second.

Compared with B18, B19 is lower in binding signal: 4.47 PBM z-score against 500 random probes for the first, 4.29 PBM z-score against 500 random probes for the second.

First: B20
Second: B21
The binding signal of the first is lower: 4.22 PBM z-score against 500 random probes for the first, 4.31 PBM z-score against 500 random probes for the second.

First: B22
Second: B23
The binding signal of the first is higher: 7.73 PBM z-score against 500 random probes for the first, 7.69 PBM z-score against 500 random probes for the second.

Going from B24 to B25, the binding signal rises from 7.68 PBM z-score against 500 random probes to 7.99 PBM z-score against 500 random probes.

Compared with B26, B27 is higher in binding signal: 4.58 PBM z-score against 500 random probes for the first, 7.66 PBM z-score against 500 random probes for the second.

Going from B28 to B29, the binding signal falls from 7.46 PBM z-score against 500 random probes to 4.55 PBM z-score against 500 random probes.

Compared with B30, B31 is higher in binding signal: 4.34 PBM z-score against 500 random probes for the first, 4.41 PBM z-score against 500 random probes for the second.

B32 was tested, and the binding signal was 8.44 PBM z-score against 500 random probes.
